Measured values published in patent KR20160022857A (dated 2016).

molecular target: T1, HER2-ECD-His 단백질 (human, UniProt P04626 23-652); experiment: SPR; IgG captured on goat anti-human IgG; HER2-ECD-His as analyte
T1 construct: extracellular domain; Origin and limits of the construct are not described; not shown: His tag

| Binder | fold decrease of koff (kd) vs hz1E11 [fold] | fold improvement of affinity (KD) vs hz1E11 [fold] |
| --- | --- | --- |
| hz1E11-154 (IgG) (antibody, V domains shown, heavy variable region same as hz1E11) VH: EVQLVESGGGLVQPGGSLRLSCAASGFTFSSYTMSWVRQAPGKGLEWVAYISNGGGSTYYPDTVKGRFTISRDNAKNSLYLQMNSLRAEDTAVYYCARHLGGTASFDYWGQGTLVTVSS VL: DIQMTQSPSSLSASVGDRVTITCLASQTIGTWLAWYQQKPGKAPKLLIYVATSLADGVPSRFSGSGSGTDFTLTISSLQPEDFATYYCQQTAFSPWTFGQGTKVEIK | 8.4 | 20 |
| hz1E11-133 (IgG) (antibody, V domains shown, heavy variable region same as hz1E11) VH: EVQLVESGGGLVQPGGSLRLSCAASGFTFSSYTMSWVRQAPGKGLEWVAYISNGGGSTYYPDTVKGRFTISRDNAKNSLYLQMNSLRAEDTAVYYCARHLGGTASFDYWGQGTLVTVSS VL: DIQMTQSPSSLSASVGDRVTITCLASQTIGTWLAWYQQKPGKAPKLLIYVATSLADGVPSRFSGSGSGTDFTLTISSLQPEDFATYYCQQNAYAPWTFGQGTKVEIK | 8.4 | 15 |

molecular target: T1, HER2-ECD-His 단백질; experiment: SPR (Biacore 3000); HER2-ECD-His amine-coupled on CM5; periplasmic extract as analyte

| Binder | koff 감소 정도 (Fold) vs hz1E11 [fold] |
| --- | --- |
| M1-L-A1-3-1C3 (hz1E11-3), periplasmic extract (antibody, V domains shown, Clone as expressed in bacteria, periplasmic extract; LCDR3 DQMYSTPWT) VH: EVQLVESGGGLVQPGGSLRLSCAASGFTFSSYTMSWVRQAPGKGLEWVAYISNGGGSTYYPDTVKGRFTISRDNAKNSLYLQMNSLRAEDTAVYYCARHLGGTASFDYWGQGTLVTVSS VL: DIQMTQSPSSLSASVGDRVTITCLASQTIGTWLAWYQQKPGKAPKLLIYVATSLADGVPSRFSGSGSGTDFTLTISSLQPEDFATYYCDQMYSTPWTFGQGTKVEIK | 7.4 |
| M3-LH-A1-1-1H1 (antibody, V domains shown) VH: EVQLVESGGGLVQPGGSLRLSCAASGFTFSSYTMSWVRQAPGKGLEWVAYISNGGGSTYYPDTVKGRFTISRDNAKNSLYLQMNSLRAEDTAVYYCARNYGGTASFDYWGQGTLVTVSS VL: DIQMTQSPSSLSASVGDRVTITCLASQTIGTWLAWYQQKPGKAPKLLIYVATSLADGVPSRFSGSGSGTDFTLTISSLQPEDFATYYCQQNFIAPWTFGQGTKVEIK | 0.7 |
| M1-LH-A3-3-1A6 (antibody, V domains shown) VH: EVQLVESGGGLVQPGGSLRLSCAASGFTFSSYTMSWVRQAPGKGLEWVAYISNGGGSTYYPDTVKGRFTISRDNAKNSLYLQMNSLRAEDTAVYYCARNYGGTASFDYWGQGTLVTVSS VL: DIQMTQSPSSLSASVGDRVTITCLASQTIGTWLAWYQQKPGKAPKLLIYVATSLADGVPSRFSGSGSGTDFTLTISSLQPEDFATYYCQQLVRTPWTFGQGTKVEIK | 5.8 |
| M3-LH-A1-2-2F4 (antibody, V domains shown) VH: EVQLVESGGGLVQPGGSLRLSCAASGFTFSSYTMSWVRQAPGKGLEWVAYISNGGGSTYYPDTVKGRFTISRDNAKNSLYLQMNSLRAEDTAVYYCARNLGGTASFDYWGQGTLVTVSS VL: DIQMTQSPSSLSASVGDRVTITCLASQTIGTWLAWYQQKPGKAPKLLIYVATSLADGVPSRFSGSGSGTDFTLTISSLQPEDFATYYCQQLVRIPWTFGQGTKVEIK | 3.2 |
| M3-LH-A3-3-2A5 (antibody, V domains shown) VH: EVQLVESGGGLVQPGGSLRLSCAASGFTFSSYTMSWVRQAPGKGLEWVAYISNGGGSTYYPDTVKGRFTISRDNAKNSLYLQMNSLRAEDTAVYYCARHWGGTASFDYWGQGTLVTVSS VL: DIQMTQSPSSLSASVGDRVTITCLASQTIGTWLAWYQQKPGKAPKLLIYVATSLADGVPSRFSGSGSGTDFTLTISSLQPEDFATYYCQQMFSTPWTFGQGTKVEIK | 3.6 |
| M3-L-A1-3-2C2 (antibody, V domains shown, hz1E11 variant, periplasmic extract; substitutions derived from the printed CDR3 against hz1E11) VH: EVQLVESGGGLVQPGGSLRLSCAASGFTFSSYTMSWVRQAPGKGLEWVAYISNGGGSTYYPDTVKGRFTISRDNAKNSLYLQMNSLRAEDTAVYYCARHLGGTASFDYWGQGTLVTVSS VL: DIQMTQSPSSLSASVGDRVTITCLASQTIGTWLAWYQQKPGKAPKLLIYVATSLADGVPSRFSGSGSGTDFTLTISSLQPEDFATYYCQQLGFIPWTFGQGTKVEIK | 2 |
| M3-L-A1-3-1F11 (hz1E11-154), periplasmic extract (antibody, V domains shown, Clone as expressed in bacteria, periplasmic extract; LCDR3 QQTAFSPWT) VH: EVQLVESGGGLVQPGGSLRLSCAASGFTFSSYTMSWVRQAPGKGLEWVAYISNGGGSTYYPDTVKGRFTISRDNAKNSLYLQMNSLRAEDTAVYYCARHLGGTASFDYWGQGTLVTVSS VL: DIQMTQSPSSLSASVGDRVTITCLASQTIGTWLAWYQQKPGKAPKLLIYVATSLADGVPSRFSGSGSGTDFTLTISSLQPEDFATYYCQQTAFSPWTFGQGTKVEIK | 9.7 |
| M3-LH-A3-3-2F1 (antibody, V domains shown, substitutions derived from the printed CDR3) VH: EVQLVESGGGLVQPGGSLRLSCAASGFTFSSYTMSWVRQAPGKGLEWVAYISNGGGSTYYPDTVKGRFTISRDNAKNSLYLQMNSLRAEDTAVYYCARHLGGTASFDYWGQGTLVTVSS VL: DIQMTQSPSSLSASVGDRVTITCLASQTIGTWLAWYQQKPGKAPKLLIYVATSLADGVPSRFSGSGSGTDFTLTISSLQPEDFATYYCQQNAYNPWTFGQGTKVEIK | 4.4 |
| M3-L-A1-3-1A12 (hz1E11-133), periplasmic extract (antibody, V domains shown, Clone as expressed in bacteria (IPTG), periplasmic extract; LCDR3 QQNAYAPWT) VH: EVQLVESGGGLVQPGGSLRLSCAASGFTFSSYTMSWVRQAPGKGLEWVAYISNGGGSTYYPDTVKGRFTISRDNAKNSLYLQMNSLRAEDTAVYYCARHLGGTASFDYWGQGTLVTVSS VL: DIQMTQSPSSLSASVGDRVTITCLASQTIGTWLAWYQQKPGKAPKLLIYVATSLADGVPSRFSGSGSGTDFTLTISSLQPEDFATYYCQQNAYAPWTFGQGTKVEIK | 30.4 |
| M3-L-A3-4-2E8 (antibody, V domains shown, hz1E11 variant, periplasmic extract; substitutions derived from the printed CDR3 against hz1E11) VH: EVQLVESGGGLVQPGGSLRLSCAASGFTFSSYTMSWVRQAPGKGLEWVAYISNGGGSTYYPDTVKGRFTISRDNAKNSLYLQMNSLRAEDTAVYYCARHLGGTASFDYWGQGTLVTVSS VL: DIQMTQSPSSLSASVGDRVTITCLASQTIGTWLAWYQQKPGKAPKLLIYVATSLADGVPSRFSGSGSGTDFTLTISSLQPEDFATYYCQQIAYVPWTFGQGTKVEIK | 5.9 |
